Series [1] has as its target Class 1 phytoglobin from Beta vulgaris (BvPgb 1.2), cysteine-to-alanine variant C86A (Beta vulgaris (sugar beet)). In words: other fluorescence titration; isothermal spectral shift (SpS), Monolith X, dual emission ratio 670/650 nm; NHS-dye-labelled Pgb mixed with a sixteen-step dilution of GAPDH (highest 32 µM), equilibrated 15 min, in capillaries; PBS pH 7.4 with 0.05% Tween20; 25 °C.

Series [2] has as its target Class 1 phytoglobin from Beta vulgaris (BvPgb 1.2), recombinant wild type (Beta vulgaris (sugar beet)). Described as above.
The subject of series [3] is BvPgb 1.2 C86A (Beta vulgaris). In words: isothermal spectral shift (Monolith X). To be noted: PBS pH 7.4, 0.05% Tween20, 25 °C, 15 min equilibration, 16-step DNA dilution, top DNA stock 673 nM (i.e. 2.5 ng pET19b/µL; the two figures are …).
Series [4] relates to BvPgb 1.2 rWT (class 1 phytoglobin) (Beta vulgaris). In words: isothermal spectral shift (Monolith X). To be noted: PBS pH 7.4, 0.05% Tween20, 25 °C, 15 min equilibration, 16-step DNA dilution, top DNA stock 673 nM (i.e. 2.5 ng pET19b/µL; the two figures are …).
[5] abbreviates: closed (hexacoordinate) phase of biphasic fit.
[6] abbreviates: open (pentacoordinate) phase of biphasic fit.

The term Kd denotes the free concentration of one partner at which half of the binding sites on the other are occupied at equilibrium, for simple one-to-one binding.

Consider “Glyceraldehyde-3-phosphate dehydrogenase (GAPDH), human (from UniProt P04406 1-335) (enzyme)”, for which the equilibrium dissociation constant (Kd) came to 120 nM in series [1] and 260 nM in series [2].
Regarding pET19b plasmid DNA, the equilibrium dissociation constant (Kd) was 0.23 nM in series [3] (setting [5]), 50 nM in series [3] (setting [6]), 0.1 nM in series [4] (setting [5]) and 120 nM in series [4] (setting [6]).
